This note sets out measurements from patent US20070249813A1 (AbbVie / Abbott, published 2007).

The target in assay [1] is T1, biotinylated recombinant human TNFα (human, UniProt P01375 77-233, biotinylated (D-biotinyl-ε-aminocaproic acid N-hydroxysuccinimide ester, 2:1 molar ratio of biotin to rhTNFα)).
T1 construct: mature; Immobilized via streptavidin on the BIAcore chip; also called biotinylated rhTNFα; biotinylated rhTNF
Description: SPR (BIAcore), biotinylated rhTNFα, format IgG1/IgG4.
Description: (§1) Before injection of the protein and immediately afterward, PBS buffer alone flowed through each flow cell. […] Antibodies (20 μg/ml) were diluted in PBS running buffer and 25 μl aliquots were injected through the immobilized protein matrices at a flow rate of 5 μl/min. Prior to injection of antibody, and immediately afterwards, PBS buffer alone flowed through each flow cell. The net difference in baseline signal and signal after completion of antibody injection was taken to represent the binding value of the particular sample. Biosensor matrices were regenerated using 100 mM HCI before injection of the next sample. To determine the off rate (Koff), on rate (Kₒₙ), association rate (Kₐ) and dissociation rate (Kd) constants, BIAcore kinetic evaluation software (version 2.1) was used.

In assay [2] the target is recombinant human TNFα (human, UniProt P01375 77-233, The active form is a noncovalent homotrimer; one protomer is given.). Put plainly: cell-based or functional assay.
The target in assay [3] is T1, biotinylated recombinant human TNFα. Put plainly: SPR (BIAcore), biotinylated rhTNFα, scFv. For orientation: In SPR one partner is held on a chip, and binding of the other changes the refractive index at the surface.
Description: as §1
For assay [4] the target is unchanged. Put plainly: SPR (BIAcore), scFv, reference VH1-D2/LOE7.
Description: as §1
Assay [5] has the same target. Put plainly: SPR (BIAcore), biotinylated rhTNFα, IgG4.
Description: as §1
The target is the same in assay [6]. Put plainly: SPR (BIAcore), scFv; reference taken to be VH1-D2/LOE7.
Description: as §1

As usually defined, the koff is the first-order rate constant of dissociation.

T1 sequence (P01375 77-233 limits assumed): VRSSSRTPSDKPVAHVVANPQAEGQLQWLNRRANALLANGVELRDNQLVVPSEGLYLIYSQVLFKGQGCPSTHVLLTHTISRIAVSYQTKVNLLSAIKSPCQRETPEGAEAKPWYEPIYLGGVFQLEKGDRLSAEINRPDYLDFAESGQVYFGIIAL
Chain of recombinant human TNFα (P01375 77-233 limits assumed): as above

B1: VH1-D2/LOE7 (format printed as IgG1/IgG4 in Table 6, scFv/IgG1/IgG4 in Table 7) (antibody, V domains shown)
VH: QVQLVESGGGLVQPGRSLRLSCAASGFTFDDYAMHWVRQAPGKGLDWVSAITWNSGHIDYADSVEGRFAVSRDNAKNALYLQMNSLRPEDTAVYYCAKVSYLSTASSLDYWGQGTLVTVSS
VL: not shown
On to B1, for which, in assay [1], the koff was found to be 7.7e-05 s⁻¹. The “IC50, neutralization of TNFα-induced L929 cytotoxicity” value (“IC50, neutralization” below) in assay [2] came out at 0.34 nM.

B2: VH1-D2/EP B12 scFv (scFv, V domains shown)
VH: QVQLVESGGGLVQPGRSLRLSCAASGFTFDDYAMHWVRQAPGKGLDWVSAITWNSGHIDYADSVEGRFAVSRDNAKNALYLQMNSLRPEDTAVYYCAKVSYLSTASSLDYWGQGTLVTVSS
VL: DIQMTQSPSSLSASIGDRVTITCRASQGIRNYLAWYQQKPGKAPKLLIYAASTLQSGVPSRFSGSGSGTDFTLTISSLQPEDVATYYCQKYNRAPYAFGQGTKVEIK
notes: scFv
Consider B2, for which, in assay [3], the koff was 0.0008 s⁻¹. Further, in assay [4], the “fold faster off rate against LOE7” value was determined as 2 fold.

B3: VH1-D2.N/LOE7.A IgG4 (antibody, V domains shown)
VH: QVQLVESGGGLVQPGRSLRLSCAASGFTFDDYAMHWVRQAPGKGLDWVSAITWNSGHIDYADSVEGRFAVSRDNAKNALYLQMNSLRPEDTAVYYCAKVSYLSTASSLDNWGQGTLVTVSS
VL: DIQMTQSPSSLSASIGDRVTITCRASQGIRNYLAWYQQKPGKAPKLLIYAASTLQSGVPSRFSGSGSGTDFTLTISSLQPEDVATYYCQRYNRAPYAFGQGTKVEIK
notes: IgG4
For B3, the koff in assay [5] turned out to be 3.2e-05 s⁻¹. Moreover, the “IC50, neutralization” value in assay [2] came to 0.062 nM.

B4: VH1-D2.Y/LOE7.A IgG4 (antibody, V domains shown)
VH: QVQLVESGGGLVQPGRSLRLSCAASGFTFDDYAMHWVRQAPGKGLDWVSAITWNSGHIDYADSVEGRFAVSRDNAKNALYLQMNSLRPEDTAVYYCAKVSYLSTASSLDYWGQGTLVTVSS
VL: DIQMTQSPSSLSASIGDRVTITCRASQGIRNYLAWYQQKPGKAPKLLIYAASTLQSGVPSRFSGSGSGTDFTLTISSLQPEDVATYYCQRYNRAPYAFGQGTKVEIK
notes: IgG4
Consider B4, for which, in assay [5], the koff was 2.7e-05 s⁻¹. Besides, the “IC50, neutralization” value in assay [2] stood at 0.028 nM.

B5: VH1-D2.N/LOE7.T IgG4 (antibody, V domains shown)
VH: QVQLVESGGGLVQPGRSLRLSCAASGFTFDDYAMHWVRQAPGKGLDWVSAITWNSGHIDYADSVEGRFAVSRDNAKNALYLQMNSLRPEDTAVYYCAKVSYLSTASSLDNWGQGTLVTVSS
VL: not shown
notes: IgG4
As to B5, the koff in assay [5] is 2.1e-05 s⁻¹. Further, in assay [2], the “IC50, neutralization” value is 0.13 nM.

B6: VH1-D2/2SD4 VL scFv (scFv, V domains shown)
VH: QVQLVESGGGLVQPGRSLRLSCAASGFTFDDYAMHWVRQAPGKGLDWVSAITWNSGHIDYADSVEGRFAVSRDNAKNALYLQMNSLRPEDTAVYYCAKVSYLSTASSLDYWGQGTLVTVSS
VL: DIQMTQSPSSLSASIGDRVTITCRASQGIRNYLAWYQQKPGKAPKLLIYAASTLQSGVPSRFSGSGSGTDFTLTISSLQPEDVATYYCQKYNSAPYAFGQGTKVEIK
notes: scFv
Turning to B6, the “IC50, neutralization” value in assay [2] is 10 nM. Besides, the koff in assay [3] is 0.00194 s⁻¹. Further, the “fold faster off rate” value in assay [6] came out at 5 fold.
